These results are taken from publication PMC10991234, “An evolved pyrrolysyl-tRNA synthetase with polysubstrate specificity expands the toolbox for engineering enzymes with incorporation of noncanonical amino acids” (Bioresources and Bioprocessing, 2023).

What all share (conditions): 100 mM Tris-HCl pH 8, 30°C, 1.5 µM PrCl3, 1.5 µM PQQ, 1 mM PES, 150 µM DCPIP
Substrate in data set [1]: CC[C@@H](C)O
The data set is described as follows: purified protein.

Substrate in data set [2]: CC[C@H](C)O
As to the kind of experiment: purified protein.

Substrate in data set [3]: CO
The data set is described as follows: dye-linked PES/DCPIP colorimetric assay, Michaelis-Menten fit. The data set is classed as biochemical, Pseudomonas putida.

B1: PedH (Pseudomonas putida KT2440) (protein)
chain: AVSNEEILQDPKNPQQIVTNGLGVQGQRYSPLDLLNVNNVKELRPVWAFSFGGEKQRGQQAQPLIKDGVMYLTGSYSRVFAVDARTGKKLWQYDARLPDDIRPCCDVINRGVALYGNLVFFGTLDAKLVALNKDTGKVVWSKKVADHKEGYSISAAPMIVNGKLITGVAGGEFGVVGKIQAYNPENGELLWMRPTVEGHMGYVYKDGKAIENGISGGEAGKTWPGDLWKTGGAAPWLGGYYDPETNLILFGTGNPAPWNSHLRPGDNLYSSSRLALNPDDGTIKWHFQSTPHDGWDFDGVNELISFNYKDGGKEVKAAATADRNGFFYVLDRTNGKFIRGFPFVDKITWATGLDKDGRPIYNDASRPGAPGSEAKGSSVFVAPAFLGAKNWMPMAYNKDTGLFYVPSNEWGMDIWNEGIAYKKGAAFLGAGFTIKPLNEDYIGVLRAIDPVSGKEVWRHKNYAPLWGGVLTTKGNLVFTGTPEGFLQAFNAKTGDKVWEFQTGSGVLGSPVTWEMDGEQYVSVVSGWGGAVPLWGGEVAKRVKDFNQGGMLWTFKLPKQLQQTASVKP
notes: recombinant, pET-28a in E. coli BL21(DE3), purified on Ni-NTA; PQQ and Pr3+ added
Usually Km stands for the concentration of substrate that gives half-maximal velocity. A word on the kcat: it is the number of substrate molecules converted per active site and unit of time at saturation. As a reminder, the kcat/Km is the second-order rate constant that governs catalysis at low substrate concentration. For B1, in data set [1], the Km came to 940 ± 130 µM, the kcat was determined as 0.42 ± 0.01 s⁻¹ and the kcat/Km is 447 M⁻¹ s⁻¹. For the same protein, in data set [2], the Km amounted to 1070 ± 180 µM, the kcat stood at 0.43 ± 0.01 s⁻¹ and the kcat/Km was determined as 402 M⁻¹ s⁻¹. Moreover, in data set [3], the Km came to 1100 µM and the kcat came out at 0.15 s⁻¹.
